# Data taken from US20020081623A1.
# Molecular target: RANTES/eotaxin binding sites on guinea-pig eosinophils (guinea-pig)
# Test: binding of 0.1 nM 125I-RANTES to 4x10^5 guinea-pig eosinophils without competitor
substance,measurement,value
human RANTES (from UniProt P13501 24-91) (ligand),B0,14.4%
